This is an account of results in paper doi:10.1101/2025.06.13.659598 (bioRxiv, 2025).

This assay has as its target F-actin (rabbit skeletal muscle actin, polymerised) (rabbit, UniProt P68135 1-377). As to the kind of experiment: co-sedimentation.

B1: FHOD1 wild-type, full length (natural protein)
chain: MAGGEDRGDGEPVSVVTVRVQYLEDTDPFACANFPEPRRAPTCSLDGALPLGAQIPAVHRLLGAPLKLEDCALQVSPSGYYLDTELSLEEQREMLEGFYEEISKGRKPTLILRTQLSVRVNAILEKLYSSSGPELRRSLFSLKQIFQEDKDLVPEFVHSEGLSCLIRVGAAADHNYQSYILRALGQLMLFVDGMLGVVAHSDTIQWLYTLCASLSRLVVKTALKLLLVFVEYSENNAPLFIRAVNSVASTTGAPPWANLVSILEEKNGADPELLVYTVTLINKTLAALPDQDSFYDVTDALEQQGMEALVQRHLGTAGTDVDLRTQLVLYENALKLEDGDIEEAPGAGGRRERRKPSSEEGKRSRRSLEGGGCPARAPEPGPTGPASPVGPTSSTGPALLTGPASSPVGPPSGLQASVNLFPTISVAPSADTSSERSIYKARFLENVAAAETEKQVALAQGRAETLAGAMPNEAGGHPDARQLWDSPETAPAARTPQSPAPCVLLRAQRSLAPEPKEPLIPASPKAEPIWELPTRAPRLSIGDLDFSDLGEDEDQDMLNVESVEAGKDIPAPSPPLPLLSGVPPPPPLPPPPPIKGPFPPPPPLPLAAPLPHSVPDSSALPTKRKTVKLFWRELKLAGGHGVSASRFGPCATLWASLDPVSVDTARLEHLFESRAKEVLPSKKAGEGRRTMTTVLDPKRSNAINIGLTTLPPVHVIKAALLNFDEFAVSKDGIEKLLTMMPTEEERQKIEEAQLANPDIPLGPAENFLMTLASIGGLAARLQLWAFKLDYDSMEREIAEPLFDLKVGMEQLVQNATFRCILATLLAVGNFLNGSQSSGFELSYLEKVSEVKDTVRRQSLLHHLCSLVLQTRPESSDLYSEIPALTRCAKVDFEQLTENLGQLERRSRAAEESLRSLAKHELAPALRARLTHFLDQCARRVAMLRIVHRRVCNRFHAFLLYLGYTPQAAREVRIMQFCHTLREFALEYRTCRERVLQQQQKQATYRERNKTRGRMITETEKFSGVAGEAPSNPSVPVAVSSGPGRGDADSHASMKSLLTSRPEDTTHNRRSRGMVQSSSPIMPTVGPSTASPEEPPGSSLPSDTSDEIMDLLVQSVTKSSPRALAARERKRSRGNRKSLRRTLKSGLGDDLVQALGLSKGPGLEV
B1: the binding result is on record as “binds”.
